Reference: US20250002562A1 (Scripps Research, published 2025)
Residue numbers refer to the chain shown, from its start.

B1: SKAI-DS1 scFv (scFv, V domains shown)
VH: EVQLLESGGGLVQTGGSLRLSCAASGFTFSDYAMSWVRQAPGKGLEWVSWIYSNDGNKYYADSVKGRFTISRDNSKNTLYLQMNSLRAEDTAVYYCARFPVPSWRNTWSSYDAMDVWGQGTLVTV
VL: QSVLTQPPSASGTPGRRVTISCTGSSSNIGSNYVSWYQQLPGTAPKLLIYSDSNRPSGVPDRFSGSKSGTSASLAISGLRSEDEADYYCGTWDASLSGYVFGGGTKLTVL
B2: SKAI-DS7 scFv (scFv, V domains shown)
VH: EVQLLESGGGLVQTGGSLRLSCAASGFTFSDYAMSWVRQAPGKGLEWVSGIYHSGGNTYYADSVKGRFTISRDNSKNTLYLQMNSLRAEDTAVYYCARDAGPFDYWGQGTLVAV
VL: QSVLTQPPSASGTPGQRVTISCSGSSSNIGSNAVSWYQQLPGTAPKLLIYDNNHRPSGVPDRFSGSKSGTSASLAISGLRSEDEADYYCGSWDDSLNAYVFGGGTKLTVL
B3: SKAI-DS1 (antibody, V domains shown)
VH: B1 VH
VL: B1 VL
notes: also called SKAI-DS1 human IgG antibody
B4: SKAI-DS15 (antibody, V domains shown)
VH: EVQLLESGGGLVQPGGSLRLSCAASGFTFSDYDMSWVRQAPGKGLEWVSMIYSGSSSKYYADSVKGRFTISRDNSKNTLYLQMNSLRAEDTAVYYCARVTGTCHSGSCYYSDAMDVWGQGTLVTV
VL: B1 VL with R16Q, T23S, Y33D, S35N, S51D, T91A, A94D
notes: also called SKAI-DS15 human IgG antibody
B5: SKAI-DS3 (antibody, V domains shown)
VH: EVQLLESGGGLVQPGGSLRLSCAASGFTFSDYSMSWVRQAPGKGLEWVSAISSDSSSTYYADSVKGRFTISRDNSENTLYLQMNSLRAEDTAVYYCAKAILRCIPLGCYYADAMDVWGQGTLVTV
VL: B1 VL with R16Q, Y33D, S35T, S51A, N54K, T91A, A94Y, G98A
notes: also called SKAI-DS3 human IgG antibody
B6: SKAI-DS66 (antibody, V domains shown)
VH: B2 VH with T14P, G50A, H53P, S54G, N57S, D99N, A100L, G101F, P102G, A113T
VL: B2 VL with S23T, S35Y, N52D, N53S, H54N, N97S
notes: also called SKAI-DS66 human IgG antibody
B7: SKAI-DS16 (antibody, V domains shown)
VH: EVQLLESGGGLVQPGGSLRLSCAASGFTFSDYSMSWVRQAPGKGLEWVSWIYPDNGNTYYADSVKGRFTISRDNSKNTLYLQMNSLRAEDTAVYYCAKPKTSFDYWGQGTLVTV
VL: B1 VL with R16Q, T23S, S35Y, S51D, D61G, A94Y, S97N
notes: also called SKAI-DS16 human IgG antibody
B8: SKAI-DS64 (antibody, V domains shown)
VH: B2 VH with T14P, A33S, G55D, N57S, T58K, D99F, A100D, G101P, P102V, A113T
VL: B2 VL
notes: also called SKAI-DS64 human IgG antibody

biological target: T1, SARS-CoV-2-B.1.617.2 (Delta variant) RBD (SARS-CoV-2 B.1.617.2 (Delta variant), UniProt P0DTC2 319-541); assay: ELISA of scFv from individual colonies on RBD antigens
T1 construct: domain: RBD; also called Delta RBD; Delta antigen

Row | Binder | binding result
1 | B1 | binds
2 | B2 | binds

biological target: T2, Omicron (B.1.1.529) RBD antigen (Genscript) (SARS-CoV2 Omicron variant (B.1.1.529), UniProt P0DTC2 319-541); assay: ELISA on RBD antigen, human IgG at 1 µg/mL, O.D. 450 nm
T2 construct: domain: RBD; also called Omicron RBD; Omicron variant RBD

Row | Binder | binding result
3 | B3 | no binding (tested: 1 µg/mL)
4 | B4 | no binding (tested: 1 µg/mL)
5 | B5 | no binding (tested: 1 µg/mL)
6 | B6 | no binding (tested: 1 µg/mL)
7 | B7 | no binding (tested: 1 µg/mL)
8 | B8 | no binding (tested: 1 µg/mL)

biological target: T1, SARS-CoV-2-B.1.617.2 (Delta variant) RBD; assay: as above

Row | Binder | binding result
9 | B3 | binds
10 | B4 | no binding (tested: 1 µg/mL)
11 | B5 | no binding (tested: 1 µg/mL)
12 | B6 | binds
13 | B7 | no binding (tested: 1 µg/mL)
14 | B8 | binds
